Assay: soluble on expression in E. coli; label from the status in PepcDB or PDB records

Sequence | soluble on expression in E. coli
HGPWPAAGAWELTILHTNDVHSRLEQTSEDSSKCVNASRCMGGVARLFTKVQQIRRAEPNVLLLDAGDQYQGTIWFTVYKGAEVAHFMNALRYDAMALGNHEFDNGVEGLIEPLLKEAKFPILSANIKAKGPLASQISGLYLPYKVLPVGDEVVGIVGYTSKETPFLSNPGTNLVFEDEITALQPEVDKLKTLNVNKIIALGHSGFEMDKLIAQKVRGVDVVVGGHSNTFLYTGNPPSKEVPAGKYPFIVTSDDGRKVPVVQAYAFGKYLGYLKIEFDERGNVISSHGNPILLNSSIPEDPSIKADINKWRIKLDNYSTQELGKTIVYLDGSSQSCRFRECNMGNLICDAMINNNLRHTDEMFWNHVSMCILNGGGIRSPIDERNNGTITWENLAAVLPFGGTFDLVQLKGSTLKKAFEHSVHRYGQSTGEFLQVGGIHVVYDLSRKPGDRVVKLDVLCTKCRVPSYDPLKMDEVYKVILPNFLANGGDGFQMIKDELLRHDSGDQDINVVSTYISKMKVIYPAVEGRIKFSTGSVRASSPSPL | soluble
HNPIDLMREIGALRQRGYNDRQIGEKIGVSTEYVNMIAGLLEKGEERLVSAVETGVLPLNLAIEISKTDAKGAQKALMDAYTQNKLRGRKLALVRRLIQQRELRGPQLHSNPLGRKPPKRALTSEGLVRAYQQEATRQKLLIKKAELTQSRLMFVREAFRKLRAD | not soluble
MSLFRLVFVMDIFNRNVVLAKGGIRENYRPVSDSSAVCRTSDPLEILEILRPKEVYIADLNVLQGKGPLDMNAEIIREVSFKADTMLDSGVSSSKDVDRALSIAGTAVIGTETGTLEVIKDSISRNPGRISVSIDIKHGKLLKQDPKIPEDPFEIVKILNRLPLKDLIFLDLDRVGTASGFDPEFLRKLAESSAHDVLLAGGVRGMKDLFALDSLGIKGALVATAIHSGEVSPEVMTLGLKKEGHHHHHH | soluble
MSKAFVDGLLQSSKVVVFSKSYCPYCHKARAALESVNVKPDALQWIEIDERKDCNEIQDYLGSLTGARSVPRVFINGKFFGGGDDTAAGAKNGKLAALLKETGAL | not soluble
MGSDKIHHHHHHMTDPFFLSDSGLLESYRAPKWLPGGNAQTIFPYFINLSPIISYRRERWEMDDGDFIDIDWLDGESDKPLVIMLHGLEGSSQSHYALSLMNLLQMLRWRGAVVHFRGCSGYSNRLPRAYHAGDSMEIDRMLRHIAHRNDSHEWNTPCYVVGVSLGGNALLKWLGEQGAQAARQIAGVVAVSVPLDLAAAGKVLDSGFNRVYTHHFLTTLKRKALEKNRQFPGLLNARAVAACRSLYEFDNLVTAPLHGFRDTDDYWRQSSSKPWLGSVQVPTLLINARNDPFLPESVLPQKSEVSSFVSLEFPQQGGHVGFIQGTFPGKLDWLPQRIIEFFSSLCGLDAIPG | not soluble
MSKKVAIVGAGPGGLATAIRLAGLGYQVEIFEAAERVGGRMRGFEVDSYAFDTGPTILQLPHLYKELFEEAGLNFADYVQLKRLEPYTRLKFWDGTQLDITSDLQSFKTQLATLRSDLPLAFDRWYSEHIRKYELGYKPYLAGPARSIFGYLRPDELMKFLSFRPWENLYQHFWRFFQDERLVYALSYPSKYLGMHPTVASSVFSLIPFLEFSQGVWHPVGGFRALAQGLANAAQDLGVKIHLHSPVHQIWIEQGQVRGLELADASRHQFDTVVINADFAYAVRHLLPTSARGRYTDNKLGQMQFSCSTFMLYLGINRRYEDLPHHQIYLSDNIRRLERPWVDDSALDETDPPFYVCNPTIIDPSNAPAGHSTLFVLVPIPNTSYAVDWDIKQKSYTDFILKRLHLLGYHNIEQHIVTQSCYTAQSWLDDYRVHLGAVFNLSHNLTQLGPFRPPIRSENIAGLYWIGGAVHPGSGLLTILEASRSAAGFIHQDFASTGSLEHHHHHH | not soluble
MGSDKIHHHHHHMKQIYLLLLCGVLFACKKKESLPEVQKIGHSGMGLYGDYPINSFESLMQAFLLGADGVEIDVQMTRDGILVLLHDELLDNQTNGTGAVQERTWDEISNLAYDNIALGRYNIIRLDFLLENCGPHIDKLFYFDIKPNAYSTEHLYTLNRNLSTLITKFNLEDNSVLMYQNNAQFLHMLSLRTDLTIYSYSDFNTAKKNILQYKLNGWVASINDIDESKVAQMHEIGARVVGFSTFNKNDHLNLIHKGVDIIQTDNLKNLINLYQ | not soluble
MQSHTFTRSRGVPIYMNGSVSHQRLYDRLSEPSTSRQLPRSISLAPTGHHRTGSTRIDREQVDTSLPVTYIPRFHDESAVRRMNYRQIPGTDIRMSKIGFGAAAIGGMFGNVEDSIIKIVETAIKQGINYIDTGYWYSQSRSESILGKALSKIPRKAYYISTKVGRFELDYARTFDFRADKILESLTNSLKRLQLTYIDICYVQIHDADFAPNESIVLYETLQALEMAKSSGKIRHIGLTGYPLGKLVYSFRYVWNAPKLYFSVNLSITRNIAVINSGALCWGLLTEKGPPPWHPASDEIKEACLAATTYCSSKNISISKLALDYALNFPNVICCLVGMDSVQQVLDNLELSNFSRITDVEQRVRDRIMRRYLDRLENAGWEGVDVAQYWKKLKKLGLTALATHRHSSVESLASTLNGFSLYSSNSSSELRTPRRRRPF | not soluble
MGSDKIHHHHHHMNGQKIIGSQCITQCNPDLRITELIIPGTHDSATSTCYERYYRTQDLSIAEQLDCGVRFLDIRLRKEMVAAHREWVSDIRAEEIFEKCGEFLQKNPQEFVLMRIQNANERKDDFPEYGEALLSKVQQYKSLFYAWDHSQIVQDGNPKWPTIAQAAGKIVPIECAPPSMSINKIDGELWAANWHDNSQILLQDLWDGPTVEEKCVAIKTLIEKGREVHSDILLLNHISATNGELQYPDAYAAYLNEYSSRLWKQLAKRSFRGVQIYDFINPSICQELLRLNFD | not soluble
MAMEKPVLWYIADPMCSWCWGFAPVIENIRQEYSAFLTVKIMPGGLRPGTNTPLLPEKRAQILHHWHSVHITTGQPFTFENALPEGFIYDTEPACRGVVSVSLIEPEKVFPFFAAIQRAFYVGQEDVAQLAILKKLAVDLGIPESRFTPVFQSDEAKQRTLAGFQRVAQWGISGFPALVVESGTDRYLITTGYRPIEALRQLLDTWLQQHGV | soluble
MGSDKIHHHHHHMPIKALRLKAMQLKATRLKAKLLQARLLQASALLGTSLNLVAMAAPYNAINESIDDGFVEAGDILVIAIPATGYLASWLYDDFEGAKQLTFSVLTTQLIVEATKSTVGRYRPNSNVAGGSYKSFPSGHSAGAFSGAAFLQSRYGSRWGIPAYLGAGVVAASRVHGRRHYADDVLGGAGIAILVNQYFVERYDNQGLAVSLFPNDEGGLQFNLSMPLDGPLNGRAGPRAEKRAQPAVHGPKRHRFAVNLGFNMTDSLGMAGAKDLLPDSQLVDDHQPFSYLLYEYLDSSKTSLQLELSPNETRLFGTLSGEFELDGKQYQDGDSLYLAFKQWSLGSQYFYRFAPQGDWHFKLGGGLYAYWVELEVDYLTGGQYAGEGSLEVMPSIEGRTRYHIGGGLSADAMARFQAWSGNQLVAAEAGLSYALGEEWVMGLKYAYSEAKWDALNMEYQTDSIVLTVENRF | not soluble
MLRKADIKDLNACLSLFEQSVKTLCAKDYTKDQICAWIKIDRQQWEEKFKYDEIFVYEKRGKIASFISVKQEQKLLDLLFTHPDFVRQGLAQNLLDFILKTYLHNEIYTFASLSAKDFFLKNGFELIRENKVIKEGQNLKKILMKKDVIYKN | not soluble
MGSDKIHHHHHHMTTDHPSAYCFFQDLAPRPPLDAAFDRDYLLYAIRGALRVSVAGESWLLPPSFAAWLPANTPISVDIDKPVTTCSVLARPGLCTGLPEKACVFQMSPMARQMIHYCKDWGPDAAHPAQAEGFFLALLHVCADLAVKSVDVKRPTATDPVLRKAIDITEAHLAQAITANEIARKVNLSERSMQRHFQMDVGMTWSQTLTQLRMIHAVALLAEGKLSIIQIAGYTGFQSLSAFNRAFRTFAATTPTKFRKALLD | not soluble
MGHHHHHHSHGLPLWVSERILQQINQLTHYEPVIGIMGKTGAGKSSLCNALFAGEVSPVSDVAACTRDPLRFRLQIGEHFMTIVDLPGVGESGVRDTEYAALYREQLPRLDLILWLIKADDRALATDEHFYRQVIGEAYRHKMLFVISQS | not soluble
MGSDKIHHHHHHMGILSDKDIAYLKDLFGKELKRKVKIVFFKTEDKTRCQYCEITEQVLEELVSVDPKLELEIHDFDSDKEAVEKYQVEMVPATILLPEDGKDYGIRFYGVPSGHEFGTLIQDIITVSEGKPQLSEESIQKLQSLEEPIRISVFVTPTCPYCPRAVLMAHNMAMASDKIIGEMIEANEYWELSEKFGVSSVPHIVVNRDPSKFFVGAYPEKEFINEVLRLAKG | not soluble
MGSDKIHHHHHHMVSIIDFYVLQKRPSNGGGFDIAIGNPPYISAPTQIASPELNEQRQRIVASKKYKSLNEKWDLYVPFMELGMQLLCPNGVFSMIVPYPLTNQKYGKKLRKMIVEEYRLLEIADLNGTKIFENATVSNCIPFIQNSQPEGELRITQIFEDKTIREVLSKSPKALKLDKKNYVWNLTEEERTGNRFANMNVLGDFCYISVGMVVNANEKDAQGAFKKEDLISDTYDAIHCRKYIEAKDIDKFQVKRVRYLEWNTERCPEKLRRPTFRELYDRPKLIMNCLGTINVTIDAEEHFLHNHSIYCAILWKDLKDVSNKSISSSVKKFSKHNREAMESLSEKVDLYYLLGILNSSMADQLLTDQRGGDYHIYPEHIRNLPIPVPQREIQNAIGEIAKQILLIRETNTDYSELEEQLNNLVEALYQ | not soluble
MPAIKSSADLRNNYNEISTFCHNYPEPVFITKNGKGDLAVMSIEAYEGLTSRFELYSQIKEGMDDIATGNTRPFSEAMADIRSRRSRLEHHHHHH | not soluble
MEELFCIGCGAQIQTEDKEKAGFTPASSIKKAEETGELYCQRCFRLRHYNEIVDVHITDDEFLKLLYEVGDSDALVVNVVDIFDFNGSIIPGLSRFVSGNDVLLVGNKKDILPKSVKDGKVTQWLTERAHEEGMRPVDVMLTSAQNHHAIKELIQRIEALRKGRDVYVVGVTNVGKSTLINAIIKEITGDKDVITTSRFPGTTLDKIEIPLDDGSYIFDTPGIIHRHQMAHYLSAKDLKYVSPKKEIKPKTYQLNAGQTLFLGGLGRFDFIDGDKQGFTAFFDNNLKLHRTKLDGADAFYDKHVGSLLMPPGPKELADFPKLVRHEFTIKDKTDVVFSGLGWIRVQGKTDQPTIVAAWAPEGVGVVVRKAIILEHHHHHH | soluble
GPGSATTVHGETVVNGAKLTVTKNLDLVNSNALIPNTDFTFKIEPDTTVNEDGNKFKGVALNTPMTKVTYTNSDKGGSNTKTAEFDFSEVTFEKPGVYYYKVTEEKIDKVPGVSYDTTSYTVQVHVLWNEEQQKPVATYIVGYKEGSKVPIQFKASLDSTTLTVKKKVSGTGGDRSKDFNFGLTLKANQYYKASEKVMIEKTTKGGQAPVQTEASIDQLYHFTLKDGESIKVTNLPVGVDYVVTEDDYKSEKYTTNVEVSPQDGAVKNIAGNSTEQETSTDKDMTITFTNKKVFE | soluble
MGSDKIHHHHHHMIVYNSGAALEKARVRVGLVGTGYAAKFRAEALLHDERSQLIAVVGHTAEKTEAFVREYQIKALSSWQELVEREDVDLVVICTVNRDHGAIARAALTNGKHVIIEYPLSLDVVEADELIALAKAQKKLLHVEHLELLGGLHQALKQNLAKIGEVFYARYSTINPQNPAPRKWTYNHELFGFPLIGALSRLHRLIDLFGTVFTVNCHQRYWEIEPEYYQTCFCTSELCFNSGLLAQVVYGKGESIWQSERKFEVHGEKGGLVFDGDTGIFIQPEETTPIEVGPRRGLFAKDTAMVLDHLFDGTPLYVTPEQSLYTLKVADAAQRAAQTGFTMFM | not soluble

Source: the DeepSol protein solubility set
